B1: GST-fused PR-B fragment LBD (688-933 aa, which contains the AF2) (domain or fragment, human, UniProt P06401 688-933, looked up)
chain: INLLMSIEPDVIYAGHDNTKPDTSSSLLTSLNQLGERQLLSVVKWSKSLPGFRNLHIDDQITLIQYSWMSLMVFGLGWRSYKHVSGQMLYFAPDLILNEQRMKESSFYSLCLTMWQIPQEFVKLQVSQEEFLCMKVLLLLNTIPLEGLRSQTQFEEMRSSYIRELIKAIGLRQKGVVSSSQRFYQLTKLLDNLHDLVKQLHLYCLNTFIQSRALSVEFPEMMSEVIAAQLPKILAGMVKPLLFHKK
B2: GST-fused PR-B fragment AF3 (1-170 aa) (domain or fragment, human, UniProt P06401 1-170, looked up)
chain: MTELKAKGPRAPHVAGGPPSPEVGSPLLCRPAAGPFPGSQTSDTLPEVSAIPISLDGLLFPRPCQGQDPSDEKTQDQQSLSDVEGAYSRAEATRGAGGSSSSPPEKDSGLLDSVLDTLLAPSGPGQSQPSPPACEVTSSWCLFGPELPEDPPAAPATQRVLSPLMSRSGC
B3: full-length human steroid receptor coactivator-2 (natural protein)
chain: not shown
B4: full-length human progesterone receptor-B (receptor, UniProt P06401 1-933, looked up)
chain: MTELKAKGPRAPHVAGGPPSPEVGSPLLCRPAAGPFPGSQTSDTLPEVSAIPISLDGLLFPRPCQGQDPSDEKTQDQQSLSDVEGAYSRAEATRGAGGSSSSPPEKDSGLLDSVLDTLLAPSGPGQSQPSPPACEVTSSWCLFGPELPEDPPAAPATQRVLSPLMSRSGCKVGDSSGTAAAHKVLPRGLSPARQLLLPASESPHWSGAPVKPSPQAAAVEVEEEDGSESEESAGPLLKGKPRALGGAAAGGGAAAVPPGAAAGGVALVPKEDSRFSAPRVALVEQDAPMAPGRSPLATTVMDFIHVPILPLNHALLAARTRQLLEDESYDGGAGAASAFAPPRSSPCASSTPVAVGDFPDCAYPPDAEPKDDAYPLYSDFQPPALKIKEEEEGAEASARSPRSYLVAGANPAAFPDFPLGPPPPLPPRATPSRPGEAAVTAAPASASVSSASSSGSTLECILYKAEGAPPQQGPFAPPPCKAPGASGCLLPRDGLPSTSASAAAAGAAPALYPALGLNGLPQLGYQAAVLKEGLPQVYPPYLNYLRPDSEASQSPQYSFESLPQKICLICGDEASGCHYGVLTCGSCKVFFKRAMEGQHNYLCAGRNDCIVDKIRRKNCPACRLRKCCQAGMVLGGRKFKKFNKVRVVRALDAVALPQPVGVPNESQALSQRFTFSPGQDIQLIPPLINLLMSIEPDVIYAGHDNTKPDTSSSLLTSLNQLGERQLLSVVKWSKSLPGFRNLHIDDQITLIQYSWMSLMVFGLGWRSYKHVSGQMLYFAPDLILNEQRMKESSFYSLCLTMWQIPQEFVKLQVSQEEFLCMKVLLLLNTIPLEGLRSQTQFEEMRSSYIRELIKAIGLRQKGVVSSSQRFYQLTKLLDNLHDLVKQLHLYCLNTFIQSRALSVEFPEMMSEVIAAQLPKILAGMVKPLLFHKK
B5: GST-fused PR-B fragment AF1 (401-546 aa) (domain or fragment, human, UniProt P06401 401-546, looked up)
chain: PRSYLVAGANPAAFPDFPLGPPPPLPPRATPSRPGEAAVTAAPASASVSSASSSGSTLECILYKAEGAPPQQGPFAPPPCKAPGASGCLLPRDGLPSTSASAAAAGAAPALYPALGLNGLPQLGYQAAVLKEGLPQVYPPYLNYLR

Columns and labels:
full-length human p300 [1] = target: T1, full-length human p300 (human, UniProt Q09472 1-2414); test: pull-down
T1 sequence (Q09472 whole entry): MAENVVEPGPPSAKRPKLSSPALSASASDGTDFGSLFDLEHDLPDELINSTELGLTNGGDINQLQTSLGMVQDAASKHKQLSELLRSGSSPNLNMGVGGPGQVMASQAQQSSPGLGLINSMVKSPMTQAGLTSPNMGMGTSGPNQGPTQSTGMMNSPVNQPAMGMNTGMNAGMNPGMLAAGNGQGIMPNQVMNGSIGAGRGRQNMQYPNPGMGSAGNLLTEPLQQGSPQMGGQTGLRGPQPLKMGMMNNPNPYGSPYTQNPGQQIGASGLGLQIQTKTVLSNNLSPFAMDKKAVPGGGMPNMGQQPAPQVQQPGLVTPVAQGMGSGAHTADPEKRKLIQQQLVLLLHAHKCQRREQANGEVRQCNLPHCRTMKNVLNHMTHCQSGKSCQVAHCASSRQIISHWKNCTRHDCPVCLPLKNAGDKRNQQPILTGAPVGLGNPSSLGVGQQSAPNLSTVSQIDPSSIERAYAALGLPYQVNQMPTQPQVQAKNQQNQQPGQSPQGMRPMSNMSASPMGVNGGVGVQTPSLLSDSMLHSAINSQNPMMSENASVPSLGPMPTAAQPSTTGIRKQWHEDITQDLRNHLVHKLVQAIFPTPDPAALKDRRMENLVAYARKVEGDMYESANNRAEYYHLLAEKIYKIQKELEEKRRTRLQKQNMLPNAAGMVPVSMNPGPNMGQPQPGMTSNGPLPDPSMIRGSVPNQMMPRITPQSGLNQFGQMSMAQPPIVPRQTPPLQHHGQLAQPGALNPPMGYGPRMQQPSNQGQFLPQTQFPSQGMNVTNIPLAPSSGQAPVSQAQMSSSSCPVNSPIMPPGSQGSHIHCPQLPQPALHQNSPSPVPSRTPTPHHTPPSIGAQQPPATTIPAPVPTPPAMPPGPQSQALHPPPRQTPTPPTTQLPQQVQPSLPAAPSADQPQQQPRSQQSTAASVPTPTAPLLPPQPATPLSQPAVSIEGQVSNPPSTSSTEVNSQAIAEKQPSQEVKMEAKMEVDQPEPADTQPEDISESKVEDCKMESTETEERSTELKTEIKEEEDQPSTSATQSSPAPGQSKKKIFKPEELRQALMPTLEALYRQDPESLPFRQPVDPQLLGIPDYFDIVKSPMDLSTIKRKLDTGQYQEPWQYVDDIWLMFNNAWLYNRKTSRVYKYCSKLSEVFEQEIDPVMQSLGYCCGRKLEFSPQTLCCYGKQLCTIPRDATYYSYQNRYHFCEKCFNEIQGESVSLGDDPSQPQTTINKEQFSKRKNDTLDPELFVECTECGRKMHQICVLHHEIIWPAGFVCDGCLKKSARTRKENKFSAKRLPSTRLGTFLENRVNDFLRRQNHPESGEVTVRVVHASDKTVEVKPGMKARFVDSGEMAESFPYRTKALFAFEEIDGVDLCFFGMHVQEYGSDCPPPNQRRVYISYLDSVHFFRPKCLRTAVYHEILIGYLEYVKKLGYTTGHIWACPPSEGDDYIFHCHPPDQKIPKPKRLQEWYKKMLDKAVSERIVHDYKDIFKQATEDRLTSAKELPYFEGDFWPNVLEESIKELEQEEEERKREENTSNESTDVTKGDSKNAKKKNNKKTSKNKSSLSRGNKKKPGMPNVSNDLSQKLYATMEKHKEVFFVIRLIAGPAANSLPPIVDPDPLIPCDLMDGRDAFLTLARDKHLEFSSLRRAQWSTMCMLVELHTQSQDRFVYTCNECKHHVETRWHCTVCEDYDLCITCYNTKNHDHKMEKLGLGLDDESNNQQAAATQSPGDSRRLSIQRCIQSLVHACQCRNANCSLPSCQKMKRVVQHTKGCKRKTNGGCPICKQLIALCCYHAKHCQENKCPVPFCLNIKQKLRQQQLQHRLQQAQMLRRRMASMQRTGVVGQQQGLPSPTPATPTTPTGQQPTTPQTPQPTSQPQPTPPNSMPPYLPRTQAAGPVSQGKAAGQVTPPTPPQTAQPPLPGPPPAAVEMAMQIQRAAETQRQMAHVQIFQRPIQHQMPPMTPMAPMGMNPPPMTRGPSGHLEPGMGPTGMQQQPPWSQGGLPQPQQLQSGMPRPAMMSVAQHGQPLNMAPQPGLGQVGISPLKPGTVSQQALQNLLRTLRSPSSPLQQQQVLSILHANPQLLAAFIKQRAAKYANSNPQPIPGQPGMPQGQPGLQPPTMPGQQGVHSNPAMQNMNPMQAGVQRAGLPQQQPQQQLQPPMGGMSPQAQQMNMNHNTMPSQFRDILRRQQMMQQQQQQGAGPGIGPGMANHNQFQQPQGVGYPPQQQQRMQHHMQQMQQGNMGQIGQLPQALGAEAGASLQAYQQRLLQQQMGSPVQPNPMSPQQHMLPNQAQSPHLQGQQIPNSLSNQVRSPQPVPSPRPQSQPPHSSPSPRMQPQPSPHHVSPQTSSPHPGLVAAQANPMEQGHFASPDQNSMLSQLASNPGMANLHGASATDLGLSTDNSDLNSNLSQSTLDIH

full-length human p300 [2] = target: T1, full-length human p300; test: cryo-EM structure
[3] = target: B3; test: cryo-EM structure
cryo-EM structure = target: the molecule itself; test: cryo-EM structure
[4] = target: B3; test: pull-down

| Binder | binding result (full-length human p300 [1]) | binding result (full-length human p300 [2]) | other results |
| --- | --- | --- | --- |
| B1 | binds |  |  |
| B2 | binds |  |  |
| B3 |  | binds |  |
| B4 |  | binds | binding result [3]: binds; stoichiometry N (cryo-EM structure): 2 |
| B5 | binds |  | binding result [4]: binds |

From paper PMC9618773 (iScience, 2022)
